{
  "source": "patent US20070276019A1",
  "about": "“Haloalkyl Containing Compounds as Cysteine Protease Inhibitors” (Axys Pharmaceuticals, Inc., priority 2003, published 2007)",
  "origin": "cited, not measured here",
  "conditions": "clinical trials",
  "data": [
    {"substance": "OKT3: murine monoclonal antibody directed towards CD-3 domain of activated T-cells", "values": [
      {"measurement": "patients administered OKT3 that produce antibodies versus the therapy", "value": "20-40%"}
    ]}
  ]
}
